Assay results reported in the supplement of paper PMC10567573.

B1: RAB22A (parent)
chain: FVEDSFDPNINPTIGASFMTKTVQ
B2: YPEL3 (parent)
chain: SKPKTFQAYLDDCHRRYSCAHCRA

Variants of: B1
Assay: protein stability index of a GFP-peptide fusion (GPS, HEK-293T) (PSI 1-6); higher = more stable
Conditions: c terminus: a fixed tail appended
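Further: lentivirally expressed fusions sorted by FACS into six bins by GFP to DsRed ratio, PSI derived from sequencing read proportions per bin multiplied by bin number.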

Variant | protein stability index
F6W | 1.76
F6H | 2.58
F6C | 2.67
F6S | 2.99
F6R | 2.36
F6N | 2.9
F6M | 2.69
F6K | 2.71
F6Y | 2.02
F6Q | 2.88
F6D | 3.85
F6A | 2.83
F6E | 4.08
F6G | 3.27
F6L | 2.56
F6T | 2.89
F6I | 2.56
F6P | 2.74
F6V | 3.31
D4W | 2.1
D4A | 1.63
D4L | 2.38
D4R | 1.7
D4Y | 2.98

Variant | protein stability index
D4T | 1.89
D4Q | 1.82
D4P | 1.78
D4N | 2.23
D4K | 1.52
D4C | 1.66
D4E | 2.52
D4V | 2.36
D4M | 2.23
D4I | 3.06
D4H | 1.36
D4F | 3.14
D4G | 2.02
D4S | 1.65
D7F | 2.75
D7T | 2.15
D7W | 3.07
D7A | 1.96
D7E | 2.36
D7I | 2
D7G | 1.79
D7P | 1.96
D7R | 1.97
D7Y | 1.67

Variant | protein stability index
D7N | 1.61
D7C | 1.98
D7M | 2.33
D7K | 2.09
D7V | 1.94
D7L | 2.15
D7S | 1.92
D7Q | 1.98
D7H | 2
E3C | 1.59
E3R | 2.54
E3T | 1.57
E3W | 1.72
E3P | 2.95
E3K | 1.88
E3N | 1.96
E3A | 1.93
E3D | 2.49
E3V | 1.75
E3Q | 1.75
E3H | 2.26
E3F | 2.57
E3L | 1.78
E3M | 1.84

Variant | protein stability index
E3S | 2.8
E3G | 1.49
E3I | 1.88
E3Y | 1.75
F1M | 3.61
F1K | 4.2
F1D | 4.45
F1Q | 4.25
F1P | 4.42
F1S | 3.98
F1E | 4.66
F1R | 4.24
F1C | 3.75
F1W | 3.41
F1T | 4.36
F1G | 4.4
F1A | 4.1
F1N | 4.44
F1V | 3.79
F1Y | 2.91
F1L | 3.51
F1H | 4.25
F1I | 3.72
I10H | 2.48

Variant | protein stability index
I10Y | 2.25
I10G | 2.3
I10R | 2.1
I10W | 1.93
I10S | 2.56
I10C | 2.14
I10E | 3.02
I10T | 2.83
I10L | 2.14
I10N | 2.73
I10P | 2.57
I10F | 2.2
I10K | 2.5
I10M | 1.99
I10D | 2.93
I10V | 2.21
I10A | 2.48
I10Q | 2.81
P8V | 2.27
P8K | 2.13
P8I | 1.67
P8R | 2.63
P8N | 2.35
P8S | 2.17

Variant | protein stability index
P8T | 2.39
P8F | 2.94
P8A | 2.33
P8G | 2.52
P8H | 2.1
P8D | 2.76
P8W | 2.65
P8Y | 1.85
P8Q | 2.26
P8C | 2.02
P8M | 2.06
P8E | 2.7
P8L | 2.1
S5Q | 2.65
S5F | 2.92
S5I | 2.18
S5W | 1.52
S5P | 1.96
S5Y | 1.98
S5E | 3.63
S5L | 1.97
S5A | 2.16
S5H | 1.74
S5D | 3.27

Variant | protein stability index
S5G | 2.08
S5C | 2.03
S5V | 1.89
S5K | 2.1
S5N | 2.64
S5T | 2.34
S5M | 1.99
S5R | 1.93
N9Y | 1.72
N9W | 2.65
N9T | 2.26
N9F | 1.92
N9E | 2.47
N9A | 2.25
N9H | 2.22
N9K | 1.88
N9R | 1.95
N9L | 1.66
N9G | 2.78
N9D | 2.73
N9S | 2.51
N9V | 2.04
N9I | 2.23
N9C | 2.08

Variant | protein stability index
N9M | 2.35
N9P | 2.49
N9Q | 2.1
N11R | 1.75
N11I | 2.23
N11W | 2.41
N11S | 2.04
N11Y | 2.16
N11D | 2.56
N11C | 2.46
N11L | 1.85
N11F | 1.82
N11A | 2.42
N11T | 2.4
N11K | 2.47
N11Q | 2.48
N11H | 1.85
N11M | 2.14
N11P | 2.43
N11G | 2.07
N11V | 2.24
N11E | 2.58
V2W | 2.51
V2K | 3.69

Variant | protein stability index
V2H | 3.61
V2C | 3.14
V2D | 4.03
V2P | 4.33
V2N | 3.62
V2S | 3.99
V2R | 3.48
V2T | 3.68
V2L | 3.29
V2Q | 3.8
V2Y | 3.19
V2F | 2.89
V2M | 3.62
V2G | 3.77
V2E | 3.95
V2I | 2.81
V2A | 3.54
P12G | 2.29
P12F | 2
P12D | 2.49
P12H | 2.46
P12E | 2.57
P12C | 2.06
P12A | 2.13

Variants of: B2
Assay: as above
Conditions: c terminus: a fixed tail appended

Variant | protein stability index
R23I | 3.07
R23F | 2.61
R23S | 3.52
R23D | 2.18
R23L | 2.37
R23P | 2.11
R23A | 3.07
R23K | 2.03
R23H | 2.59
R23C | 1.24
R23Q | 1.86
R23G | 1.39
R23E | 2.09
R23M | 2
R23V | 3.34
R23N | 2.91
R23W | 2.08
A20R | 1.72
A20W | 3.14
A20D | 1.1
A20K | 2.95
A20H | 2.04
A20Q | 1.71
A20P | 1.92

Variant | protein stability index
A20I | 1.89
A20E | 1.46
A20N | 2.92
A20S | 1.46
A20T | 2.29
A20L | 1.64
A20C | 1.31
A20V | 2.02
A20Y | 2.16
A20F | 2.22
C19Y | 2.44
C19H | 2.96
C19F | 1.53
C19E | 3.18
C19D | 3.27
C19G | 2.68
C19N | 3.42
C19W | 1.66
C19Q | 2.53
C19I | 2.33
C19P | 2.85
C19L | 2.08
C19K | 2.64
C19S | 2.87

Variant | protein stability index
C19R | 2.04
C19V | 2.41
C19A | 2.51
C19M | 1.63
C19T | 2.44
H21F | 1.52
H21P | 1.9
H21W | 1.65
H21K | 2.37
H21I | 2.52
H21D | 2.18
H21Q | 2
H21G | 1.28
H21S | 2.19
H21N | 1.57
H21L | 1.74
H21M | 1.18
H21R | 3.32
H21Y | 1.48
H21T | 2.34
H21A | 2.06
H21V | 1.79
H21C | 1.83
C22A | 2.04

Variant | protein stability index
C22P | 2.61
C22Y | 2.17
C22L | 2.37
C22R | 2.63
C22V | 2.64
C22Q | 3.22
C22W | 1.77
C22S | 1.86
C22G | 2.75
C22H | 1.82
C22T | 2.73
C22K | 2.86
C22D | 2.94
C22N | 2.45
C22M | 1.98
C22I | 2.69
C22F | 2.32
C22E | 2.34
S18R | 2.56
S18P | 2.15
S18T | 2.37
S18Y | 1.48
S18W | 1.52
S18Q | 1.86

Variant | protein stability index
S18L | 2.14
S18N | 2.06
S18M | 2.73
A24Y | 2.86
A24F | 2.59
A24N | 2
A24W | 2.39
A24K | 3.42
A24E | 1.71
A24L | 1.87
A24R | 1.71
A24V | 1.84
A24T | 1.54
A24P | 2.24
A24Q | 2.59
A24C | 1.83
A24H | 1.85
A24G | 2.32
A24M | 2.07
A24D | 1.73
A24I | 2
A24S | 1.54
